# Target: the molecule itself
# Test: native gel or EMSA
protein,measurement,value
"NEUROG3^S183A (natural protein, human, UniProt Q9Y4Z2 1-214, looked up) MTPQPSGAPTVQVTRETERSFPRASEDEVTCPTSAPPSPTRTRGNCAEAEEGGCRGAPRKLRARRGGRSRPKSELALSKQRRSRRKKANDRERNRMHNLNSALDALRGVLPTFPDDAKLTKIETLRFAHNYIWALTQTLRIADHSLYALEPPAPHCGELGSPGGSPGDWGSLYSPVSQAGSLAPAASLEERPGLLGATFSACLSPGSLAFSDFL",binding result,binds

# Reference: article PMC7082840 (Developmental cell, 2019)
